Laboratory results from the supplement of paper PMC5998384.

Assays:
HeLa Kyoto [1] = experiment: solubility in G1/S (NP-40 vs SDS abundance) (log2 ratio); higher = more soluble; details: cell cycle stage: G1/S
HeLa Kyoto [2] = experiment: melting temperature (median over replicates), in situ; higher = more thermally stable
HeLa Kyoto [3] = experiment: solubility change mitosis vs G1/S (difference of NP-40 vs SDS log2 ratios) (log2 ratio difference); higher = more soluble in mitosis
HeLa Kyoto [4] = experiment: thermal stability score vs G1/S (z-score of summed log2 fold changes over temperatures); higher = more thermally stable than in G1/S
[5] = cell cycle stage: early G1 (4.5 h after nocodazole release)
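Wherever melting temperature (median over replicates), in situ is given: HeLa Kyoto cells synchronized by double thymidine or nocodazole block, proteins quantified by TMT10plex mass spectrometry, three independent biological replicates.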
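Wherever solubility change mitosis vs G1/S (difference of NP-40 vs SDS log2 ratios) is given: synchronized HeLa Kyoto cells (double thymidine block for G1/S, nocodazole release for mitosis), protein amounts in NP-40 versus SDS lysates quantified by mass spectrometry, three biological replicates.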
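Wherever solubility in G1/S (NP-40 vs SDS abundance) is given: HeLa Kyoto cells arrested at G1/S by double thymidine block, proteins quantified by TMT10plex mass spectrometry in mild NP-40 versus SDS extracts, three biological replicates.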
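Wherever thermal stability score vs G1/S (z-score of summed log2 fold changes over temperatures) is given: synchronized HeLa Kyoto cells, proteins quantified by TMT10plex mass spectrometry, three biological replicates, mitosis taken 0.5 h after nocodazole release, G1/S directly after double thymidine block.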

| Sequence | solubility in G1/S (log2) (HeLa Kyoto [1]) | melting temperature (HeLa Kyoto [2]; cell cycle stage: G1/S) [°C] | melting temperature (HeLa Kyoto [2]; cell cycle stage: mitosis) [°C] | solubility change mitosis (log2) (HeLa Kyoto [3]) | thermal stability score (HeLa Kyoto [4]; [5]) | thermal stability score (HeLa Kyoto [4]; cell cycle stage: mitosis) |
| --- | --- | --- | --- | --- | --- | --- |
| MRPMRIFVNDDRHVMAKHSSVYPTQEELEAVQNMVSHTERALKAVSDWIDEQEKGSSEQAESDNMDVPPEDDSKEGAGEQKTEHMTRTLRGVMRVGLVAKGLLLKGDLDLELVLLCKEKPTTALLDKVADNLAIQLAAVTEDKYEILQSVDDAAIVIKNTKEPPLSLTIHLTSPVVREEMEKVLAGETLSVNDPPDVLDRQKCLAALASLRHAKWFQARANGLKSCVIVIRVLRDLCTRVPTWGPLRGWPLELLCEKSIGTANRPMGAGEALRRVLECLASGIVMPDGSGIYDPCEKEATDAIGHLDRQQREDITQSAQHALRLAAFGQLHKVLGMDPLPSKMPKKPKNENPVDYTVQIPPSTTYAITPMKRPMEEDGEEKSPSKKKKKIQKKEEKAEPPQAMNALMRLNQLKPGLQYKLVSQTGPVHAPIFTMSVEVDGNSFEASGPSKKTAKLHVAVKVLQDMGLPTGAEGRDSSKGEDSAEETEAKPAVVAPAPVVEAVSTPSAAFPSDATAEQGPILTKHGKNPVMELNEKRRGLKYELISETGGSHDKRFVMEVEVDGQKFQGAGSNKKVAKAYAALAALEKLFPDTPLALDANKKKRAPVPVRGGPKFAAKPHNPGFGMGGPMHNEVPPPPNLRGRGRGGSIRGRGRGRGFGGANHGGYMNAGAGYGSYGYGGNSATAGYSQFYSNGGHSGNASGGGGGGGGGSSGYGSYYQGDNYNSPVPPKHAGKKQPHGGQQKPSYGSGYQSHQGQQQSYNQSPYSNYGPPQGKQKGYNHGQGSYSYSNSYNSPGGGGGSDYNYESKFNYSGSGGRSGGNSYGSGGASYNPGSHGGYGGGSGGGSSYQGKQGGYSQSNYNSPGSGQNYSGPPSSYQSSQGGYGRNADHSMNYQYR [ILF3] | -0.123 | 54.1 | 53.9 | 0.113 | -0.903 | -1.89 |
| MPGFDYKFLEKPKRRLLCPLCGKPMREPVQVSTCGHRFCDTCLQEFLSEGVFKCPEDQLPLDYAKIYPDPELEVQVLGLPIRCIHSEEGCRWSGPLRHLQGHLNTCSFNVIPCPNRCPMKLSRRDLPAHLQHDCPKRRLKCEFCGCDFSGEAYESHEGMCPQESVYCENKCGARMMRRLLAQHATSECPKRTQPCTYCTKEFVFDTIQSHQYQCPRLPVACPNQCGVGTVAREDLPGHLKDSCNTALVLCPFKDSGCKHRCPKLAMARHVEESVKPHLAMMCALVSRQRQELQELRRELEELSVGSDGVLIWKIGSYGRRLQEAKAKPNLECFSPAFYTHKYGYKLQVSAFLNGNGSGEGTHLSLYIRVLPGAFDNLLEWPFARRVTFSLLDQSDPGLAKPQHVTETFHPDPNWKNFQKPGTWRGSLDESSLGFGYPKFISHQDIRKRNYVRDDAVFIRAAVELPRKILS [TRAF4] | -0.439 | 51.3 | 51.8 | 0.124 | 0.266 | 0.814 |
| MTSLYGRHAEKTTDMPKPSAPKVHVQRSVSRDTIAIHFSASGEEEEEEEEEFREYFEEGLDDQSIVTGLEAKEDLYLEPQVGHDPAGPAASPVLADGLSVSQAPAILPVSKNTVKLLESPVPAAQVLSTVPLAVSPGSSSSGPLASSPSVSSLSEQKTSSSSPLSSPSKSPILSSSASTSTLSSAKPFMSLVKSLSTEVEPKESPHPARHRHLMKTLVKSLSTDTSRQESDTVSYKPPDSKLNLHLFKQFTQPRNTGGDSKTAPSSPLTSPSDTRSFFKVPEMEAKIEDTKRRLSEVIYEPFQLLSKIIGEESGSHRPKALSSSASELSNLSSLNGHLESNNNYSIKEEECDSEGDGYGSDSNIPRSDHPKSTGEPTREIELKSSQGSSLKDLGLKTSSLVLEKCSLSALVSKEDEEFCELYTEDFDLETEGESKVDKLSDIPLKPEVLAEDGVVLDSEDEVDSAVQHPELPVKTLGFFIMCVYVYLILPLPHYVSGLFLGIGLGFMTAVCVIWFFTPPSAHKYHKLHKNLRHWNTRSLDIKEPEILKGWMNEIYNYDPETYHATLTHSVFVRLEGGTLRLSKPNKNISRRASYNEPKPEVTYISQKIYDLSDSKIYLVPKTLARKRIWNKKYPICIELGQQDDFMSKAQTDKETSEEKPPAEGSEDPKKPPRPQEGTRSSQRDQILYLFGRTGREKEEWFRRFILASKLKSEIKKSSGVSGGKPGLLPAHSRHNSPSGHLTHSRSSSKGSVEEIMSQPKQKELAGSVRQKMLLDYSVYMGRCVPQESRSPQRSPLQSAESSPTAGKKLPEVPPSEEEEQEAWVNALLGRIFWDFLGEKYWSDLVSKKIQMKLSKIKLPYFMNELTLTELDMGVAVPKILQAFKPYVDHQGLWIDLEMSYNGSFLMTLETKMNLTKLGKEPLVEALKVGEIGKEGCRPRAFCLADSDEESSSAGSSEEDDAPEPSGGDKQLLPGAEGYVGGHRTSKIMRFVDKITKSKYFQKATETEFIKKKIEEVSNTPLLLTVEVQECRGTLAVNIPPPPTDRVWYGFRKPPHVELKARPKLGEREVTLVHVTDWIEKKLEQEFQKVFVMPNMDDVYITIMHSAMDPRSTSCLLKDPPVEAADQP [TEX2] | -0.062 | 50.1 | 50.4 | -0.118 | -0.212 | -0.23 |
| MHDAFEPVPILEKLPLQIDCLAAWEEWLLVGTKQGHLLLYRIRKDVVPADVASPESGSCNRFEVTLEKSNKNFSKKIQQIHVVSQFKILVSLLENNIYVHDLLTFQQITTVSKAKGASLFTCDLQHTETGEEVLRMCVAVKKKLQLYFWKDREFHELQGDFSVPDVPKSMAWCENSICVGFKRDYYLIRVDGKGSIKELFPTGKQLEPLVAPLADGKVAVGQDDLTVVLNEEGICTQKCALNWTDIPVAMEHQPPYIIAVLPRYVEIRTFEPRLLVQSIELQRPRFITSGGSNIIYVASNHFVWRLIPVPMATQIQQLLQDKQFELALQLAEMKDDSDSEKQQQIHHIKNLYAFNLFCQKRFDESMQVFAKLGTDPTHVMGLYPDLLPTDYRKQLQYPNPLPVLSGAELEKAHLALIDYLTQKRSQLVKKLNDSDHQSSTSPLMEGTPTIKSKKKLLQIIDTTLLKCYLHTNVALVAPLLRLENNHCHIEESEHVLKKAHKYSELIILYEKKGLHEKALQVLVDQSKKANSPLKGHERTVQYLQHLGTENLHLIFSYSVWVLRDFPEDGLKIFTEDLPEVESLPRDRVLGFLIENFKGLAIPYLEHIIHVWEETGSRFHNCLIQLYCEKVQGLMKEYLLSFPAGKTPVPAGEEEGELGEYRQKLLMFLEISSYYDPGRLICDFPFDGLLEERALLLGRMGKHEQALFIYVHILKDTRMAEEYCHKHYDRNKDGNKDVYLSLLRMYLSPPSIHCLGPIKLELLEPKANLQAALQVLELHHSKLDTTKALNLLPANTQINDIRIFLEKVLEENAQKKRFNQVLKNLLHAEFLRVQEERILHQQVKCIITEEKVCMVCKKKIGNSAFARYPNGVVVHYFCSKEVNPADT [VPS39] | -0.174 | 50.8 | 50.1 | -0.261 | 0.627 | 0.376 |
